This passage reports Kd and Ka results from patent US20060153851A1, “CLASP proteins” (ARBOR VITA CORPORATION, published 2006).

Test [1] concerns the target T1, GST-NeDLG fusion protein (human, UniProt Q92796).
T1 sequence: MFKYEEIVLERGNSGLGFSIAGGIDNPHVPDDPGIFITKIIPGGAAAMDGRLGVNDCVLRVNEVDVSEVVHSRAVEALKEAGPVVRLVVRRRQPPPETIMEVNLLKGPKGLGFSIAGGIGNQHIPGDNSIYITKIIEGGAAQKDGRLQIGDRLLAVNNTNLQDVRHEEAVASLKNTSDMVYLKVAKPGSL
Briefly: varying concentrations of biotinylated peptide on plate-bound GST fusion, streptavidin-HRP, fit to a saturation binding curve (FIG. 9B). Here is the method: (§1) 20 μM biotinylated synthetic peptide corresponding to the C-terminal 20 amino acids of CLASP-2 was reacted with the indicated plate bound GST fusion proteins (none=no GST fusion protein coated onto plate). Error bars indicate standard deviation of duplicate measurements. B. Affinity of CLASP 2-PDZ interactions. Varying concentrations of biotinylated CLASP-2 peptide were reacted with plate bound GST alone, GST-DLG1, GST-NeDLG, and GST-PSD95 fusion proteins. The binding to GST alone (<0.1 OD units) was subtracted from the binding to the fusion proteins and the remaining signal was divided by the signal observed upon addition of 30 μM CLASP-2 peptide to each PDZ domain-containing protein (0.4-1.0 OD units) and plotted. […] Data are means of duplicate data points, with standard errors between duplicate data points <10%. C. Inhibition of CLASP-2-PDZ binding. 5 μM biotinylated synthetic peptide corresponding to the C-terminal 20 amino acids of CLASP-2 was reacted with the indicated, plate-bound PDZ domain-containing GST fusion proteins in the presence or absence of 100 μM competitor peptide. CLASP-2 Inhibitor refers to a synthetic peptide composed of the eight C-terminal amino acids of CLASP-2. KV1.3 Inhibitor refers to a synthetic peptide composed of the 19 C-terminal amino acids of KV1.3, a lymphocyte potassium channel. The amino acid sequence of the KV1.3 inhibitor is […]. D. Inhibition of KV1.3-PDZ binding. 5 μM biotinylated synthetic peptide corresponding to the C-terminal 19 amino acids of KV1.3 was reacted with the indicated, plate-bound PDZ-domain containing GST fusion proteins in the presence or absence of 100 μM CLASP-2 Inhibitor (see FIG. 9C legend).
(§2) The binding of a biotinylated carboxyl-terminal peptide to a GST-PDZ fusion protein is measured as follows: [0470] (1) GST fusion protein containing one or more PDZ domain(s) is coated onto a protein-binding surface. […]

For test [2], the target named is GST-DLG1 fusion protein (Homo sapiens (Human), UniProt Q12959). Described as above. On the procedure: as §1, §2
The target of test [3] is GST-PSD95 fusion protein (Homo sapiens (Human), UniProt P78352). Described as above. On the procedure: as §1, §2
Test [4] has as its target T1, GST-NeDLG fusion protein. The test is described as follows: biotinylated peptide titration on plate-bound GST fusion (FIG. 9B). On the procedure:
20 μM biotinylated synthetic peptide corresponding to the C-terminal 20 amino acids of CLASP-2 was reacted with the indicated plate bound GST fusion proteins (none=no GST fusion protein coated onto plate). Error bars indicate standard deviation of duplicate measurements. B. Affinity of CLASP 2-PDZ interactions. Varying concentrations of biotinylated CLASP-2 peptide were reacted with plate bound GST alone, GST-DLG1, GST-NeDLG, and GST-PSD95 fusion proteins. The binding to GST alone (<0.1 OD units) was subtracted from the binding to the fusion proteins and the remaining signal was divided by the signal observed upon addition of 30 μM CLASP-2 peptide to each PDZ domain-containing protein (0.4-1.0 OD units) and plotted. […] Data are means of duplicate data points, with standard errors between duplicate data points <10%. C. Inhibition of CLASP-2-PDZ binding. 5 μM biotinylated synthetic peptide corresponding to the C-terminal 20 amino acids of CLASP-2 was reacted with the indicated, plate-bound PDZ domain-containing GST fusion proteins in the presence or absence of 100 μM competitor peptide. CLASP-2 Inhibitor refers to a synthetic peptide composed of the eight C-terminal amino acids of CLASP-2. […]
The binding of a biotinylated carboxyl-terminal peptide to a GST-PDZ fusion protein is measured as follows: [0470] […]

B1: biotinylated synthetic peptide corresponding to the C-terminal 20 amino acids of CLASP-2 (peptide)
peptide: VLHHHQNPEFYDEIKIELPTQLHEKHHLLLTFFHVSCDNSSKGSTKKRDVVETQVGYSWLPLLKDGRVVTSEQHIPVSANLPSGYLGYQELGMGRHYGPEIKWVDGGKPLLKISTHLVSTVYTQDQHLHNFFQYCQKTESGAQALGNELVKYLKSLHAMEGHVMIAFLPTILNQLFRVLTRATQEEVAVNVTRVIIHVVAQCHEEGLESHLRSYVKYAYKAEPYVASEYKTVHEELTKSMTTILKPSADFLTSNKLLRYSWFFFDVLIKSMAQHLIENSKVKLLRNQRFPASYHHAAETVVNMLMPHITQKFGDNPEASKNANHSLAVFIKRCFTFMDRGFVFKQINNYISCFAPGDPKTLFEYKFEFLRVVCNHEHYIPLNLPMPFGKGRIQRYQDLQLDYSLTDEFCRNHFLVGLLLREVGTALQEFREVRLIAISVLKNLLIKHSFDDRYASRSHQARIATLYLPLFGLLIENVQRINVRDVSPFPVNAGMTVKDESLALPAVNPLVTPQKGSTLDNSLHKDLLGAISGIASPYTTSTPNINSVRNADSRGSLISTDSGNSLPERNSEKSNSLDKHQQSSTLGNSVVRCDKLDQSEIKSLLMCFLYILKSMSDDALFTYWNKASTSELMDFFTISEVCLHQFQYMGKRYIARNQEGLGPIVHDRKSQTLPVSRNRTGMMHARLQQLGSLDNSLTFNHSYGHSDADVLHQSLLEANIATEVCLTALDTLSLFTLAFKNQLLADHGHNPLMKKVFDVYLCFLQKHQSETALKNVFTALRSLIYKFPSTFYEGRADMCAALCYEILKCCNSKLSSIRTEASQLLYFLMRNNFDYTGKKSFVRTHLQVIISVSQLIADVVGIGETRFQQSLSIINNCANSDRLIKHTSFSSDVKDLTKRIRTVLMATAQMKEHENDPEMLVDLQYSLAKSYASTPELRKTWLDSMARIHVKNGDLSEAAMCYVHVTALVAEYLTRKGVFRQGCTAFRVITPNIDEEASMMEDVGMQDVHFNEDVLMELLEQCADGLWKAERYELIADIYKLIIPIYEKRRDFFEDEDGKEYIYKEPKLTPLSEISQRLLKLYSDKFGSENVKMIQDSGKVNPKDLDSKYAYIQVTHVIPFFDEKELQERKTEFERSHNIRRFMFEMPFTQTGKRQGGVEEQCKRRTILTAIHCFPYVKKRIPVMYQHHTDLNPIEVAIDEMSKKVAELRQLCSSAEVDMIKLQLKLQGSVSVQVNAGPLAYARAFLDDTNTKRYPDNKVKLLKEVFRQFVEACGQALAVNERLIKEDQLEYQEEMKANYREMAKELSEIMHEQICPLEEKTSVLPNSLHIFNAISGTPTSTMVHGMTSSSSVV
modifications: biotin at the amino-terminus
Regarding B1, the equilibrium dissociation constant (Kd) in test [1] turned out to be 7.5 µM; in test [2], 21 µM; in test [3], 45 µM. The same molecule had a Ka in test [4] of at least 10000 M⁻¹.

What is called Kd is the equilibrium constant for the complex coming apart. Low readings indicate a tighter complex, high ones a looser complex.
